Measurements taken from patent publication US20240352438A1, “MEANS AND METHODS FOR DETOXIFYING OCHRATOXIN A” (DSM Austria GmbH, priority 2021, published 2024).
Changes are numbered by the printed parent chain.

B1: 151 (protein)
chain: MTTRTRILTAFLSLLAANACAADAAPAAPHTVVLRAARMFDGASGKLVDHPQLTIVGNKIVRIAQGDKAEVPAGAEVVDLGDATLLPGFIDAHVHLSGQSSDNWYGDFFDNMMRFPAEQALYGAYYARITLEAGFTSVRDVGSTDWVALGLRNAIDAGKVPGPRMLVSNYPVGSTGGHADQDPIPPHKLPLAGPLQGVCNGPEECRAAVRYQIKYGANVIKFMPSGGVLSLSDPVDAPELSQDEMNAVIGESHAWGRKVAAHAHGDKAAKMAVAAGVDSIEHGSFIEDDTLRAMKAKNVYLVPTISAAAHVEEKIGTFPPVIAEKGRAAAAHLRQTFRHAVQIGVPIALGTDAGVGAHGSNAREFRYMVENGLTPAQALLAGTANAARLLGTFDRVGTLEAGKLADVVAVPGNPIADITVTERPLFVMKDGVVVRRDAVR
modifications: exemplary polypeptide
B2: 155 (protein)
chain: B1 chain with P171A, I184V
modifications: exemplary polypeptide
B3: 153 (protein)
chain: B1 chain with A308I, F318Y
modifications: exemplary polypeptide
B4: 156 (protein)
chain: B1 chain with P171A, I184V, A308V
modifications: exemplary polypeptide
B5: 152 (protein)
chain: B1 chain with A308V
modifications: exemplary polypeptide
B6: 158 (protein)
chain: B1 chain with P171A, I184V, A308I, G354A
modifications: exemplary polypeptide
B7: 157 (protein)
chain: B1 chain with P171A, I184V, A308I, F318Y
modifications: exemplary polypeptide
B8: 159 (protein)
chain: B1 chain with P171A, F318Y
modifications: exemplary polypeptide
B9: 154 (protein)
chain: B1 chain with A308I, G354A
modifications: exemplary polypeptide
B10: 23 (protein)
chain: MQYDVAIKNGNVFTGTEFIGKMNIYISNGKISKVSKEDLNAKQEIDAKDMLVMPGLIDAHMHISGLKGGSLLKIMFEKPEYRALRATKWLEKLLLAGFTTVRDCGEPISISLKRAVNEGYIKGPKIIAAGKPITQTFGHGEFSHDIPLEFSISLGFSEICDGTESCIHAARKVLRDGSDFIKIFATGGVLSQRDRPDMPQLSFDEIRAIVNEAEKAGTYVAAHAHGDKGARIAIEAGIKTLEHGSLLKEDTLKLMLEKNISLTPTLTITEIIYKYGKTIGVDEWGLEKIVEVRENLHKVLRKAKELGITIITGTHMGFETGLEDYDIGKNWTEILLLTEVGGLSNEEALRAATYNSAKALGLNSGLIDEGKDADIIVIDGNPLENIKDVSKVVHVIKQGKLEVLDSKIINNY
modifications: exemplary polypeptide
B11: 27 (protein)
chain: MDILIKGGQVFNGKDFIGKANVYIKYGKIVEVSKEVKEAKEEIDARDMFVMPGLIDAHIHLSGIKGGSLMKTMFERPEYRVLRASKWLEKLLLAGFTTVRDCGEYVSLALKRAVQEGTIKGSNIIAAGRPVTQTFGHGEISHDIPLEFSHKVGFSEFCDGTESCIHAARKILRDGSDFIKVFATGGVLSQRDKPENPQLSYDEIKAIVNEAHKVGTYVAAHAHGDAGAKIAVEAGVKTIEHGTLLKDDTLKLMVNKGVSLTPTLTIQEVIYRYGKQIGVDEWGLQKIFEVRERVADVVKKAKDYGVLMISGTDLGFETGLWDIDMGKNWYELVLLVERGGLTPKEALTTATYNSSIALGINSGFIDIGKEGDLVVIDGNPLENIYDIAKVTHVLKAGRVEVRNGKLESK
modifications: exemplary polypeptide
B12: 24 (protein)
chain: MELAIRNGIVFNGKEIIGKTNIYVREGKIVEVSREDHSAKMEIDAKDMFVMPGLIDAHIHLSGIKGGSLLKIMFEKPEYRVLRAAKWLEKLLLAGFTTVRDCGETVSLALKRALNDGIIGGPKVIAAGKPITQTFGHGELSHDVPLEFSKTMSFSEFCDGMESCIHAARKVLRDGADFIKIFATGGVLSQRDRPEHPQLSYEEIRAIVNEAEKVNTYVAAHAHGDRGARIAIEAGVKTLEHGTLLKDETLKLMKEKNVTLTPTLTIQELIFKYGKQIGVDEWGLQKITSVRENIANVVRKAKEYGVTIISGTDLGFETGLEEIDMGKNWMETVLLVERGGLSPIEALRASTYNAAMAIGINAGVIEIGKDADIIIINGDPTLNVREISKITHVVKNGKLTVENKSIKG
modifications: exemplary polypeptide
B13: 28 (protein)
chain: MDISIKGGELFTGKELLGKFNIYIKDKKIVEISKEDKQAEVEVNAKDMFVMPGLIDAHIHLSGVKGGSLLKTMFEKPEYRVLRASKWLERLLLAGFTTVRDCGESISIALKRAVNEKIIKGPKIIAAGRPISQTFGHGELSHDLPLEFSKALSFSEFCDGVESCIHASRKVLREGADFIKIFATGGVLSQRDKPENPQLSYEEIKAIVNEAEKVNTYVAAHAHGDKGARIAIEAGVKTLEHGTLLRDDTLKLMVEKRVSLTPTLTIQELIYKYGKQIGVDEWGLEKINSVRESVAEVVRKAKEYGVLIINGTDLGFETGLDEIDMGKNWMETVLLVERGNLSNVEALRASTYNSAIAIGNDAGIIDIGRPADIIVINGNPSENIRDISKVVHVIKDGSLVVENKRLTDSL
modifications: exemplary polypeptide
B14: 25 (protein)
chain: MFDLGIKNGNVFSGKDNLGKTNIYVNNGKIVKISKENLEVRQEIDAKDMFVMPGLIDSHIHLSGIKGGSLLKIMFEKPEYRILRASKWLEKLLLAGFTTVRDCGDPISISLAKGVKDGIIIGPNIIAAGRPITQTFGHGEISHDIPLEFSEVLGFSEICDGVESCIHSARKVLREGSDFIKIFATGGVLSQRDRPENPQLTYEEIKSIVNEAEKIGTYVAAHAHGDKGARIAIEAGIKTLEHGTMLKDDTMKLMIEKDVSLTPTLTIQEVIYKYGKQIGVDEWGLEKITEVRNSISSVVKKAKEYGIRIITGTDLGFETGLSDIDIGKNWVELTLLVERGGLTPKEALQAATYNSALSLRINSGLIDTDRNADIIIIDGDPEENISDIAKIDHVIKNGNIIVEKGKIINYS
modifications: exemplary polypeptide
B15: 26 (protein)
chain: MAFDIALKNGNIFNGKEFIGKSNIYINNGKIVKVSKEELDAKQEIDAMDMFVMPGLIDAHMHISGIKGGSLLKLMFERPEYRTIRATKWLEKLLLAGFTTVRDCGDPISISLAKAVKEGIIKGPNVIAAGRPITQTFGHGELSHDIPLEVSETTGFSEICDGTESCIHAARKVLREGSDFIKIFATGGVLSQRDKPENPQLTYDEIKVIVNEAEKVGTYVAAHAHGDKGARIAIEAGIKTLEHGTLLQDETLKLMIEKKVTLTPTLSIQEVIYRHGKEIGVDEWGLEKIAMVRDSISSVVKKAKDYGITIITGTDLGFETGLEDIDIGKNWMEIVLLIEIGGLTPVEALRAATYNSSIAININSGLIDSGKEADLIIINGNPLEDIKDISKVSYVIKDGKIEVEERKIKN
modifications: exemplary polypeptide

assay: OTA detoxification activity assay (specific activity, fluorescence reduction ex/em 390/450 nm); format: biochemical; conditions: pH 6.0; SEQ ID NO: 1 = 100%
How it was run: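 Recombinant enzyme preparation with 200 ng/mL OTA in 100 mM sodium phosphate, at pH 6.0 and pH 7.5, 37° C. Degradation followed as the fall in fluorescence at ex/em 390/450 nm. Specific activity taken from the initial linear slope; one unit degrades 1 μmol OTA per min at a starting OTA of […].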

Going from B1 to B2, the “Specific OTA detoxification activities in % compared to the enzyme of SEQ ID NO: 1, pH 6.0” value rises from 75% to 116%.

First: B3
Second: B4
The “Specific OTA detoxification activities in % compared to the enzyme of SEQ ID NO: 1, pH 6.0” value of the first is lower: 72% for the first, 144% for the second.

First: B5
Second: B6
The “Specific OTA detoxification activities in % compared to the enzyme of SEQ ID NO: 1, pH 6.0” value of the first is lower: 65% for the first, 157% for the second.

Compared with B7, B8 is higher in “Specific OTA detoxification activities in % compared to the enzyme of SEQ ID NO: 1, pH 6.0” value: 78% for the first, 84% for the second.

With B9 the “Specific OTA detoxification activities in % compared to the enzyme of SEQ ID NO: 1, pH 6.0” value was 38%.

same assay, conditions: pH 7.5; SEQ ID NO: 1 = 100%

Compared with B1, B2 is higher in “Specific OTA detoxification activities in % compared to the enzyme of SEQ ID NO: 1, pH 7.5” value: 86% for the first, 124% for the second.

Going from B3 to B4, the “Specific OTA detoxification activities in % compared to the enzyme of SEQ ID NO: 1, pH 7.5” value rises from 77% to 109%.

Going from B5 to B6, the “Specific OTA detoxification activities in % compared to the enzyme of SEQ ID NO: 1, pH 7.5” value rises from 74% to 92%.

Going from B7 to B8, the “Specific OTA detoxification activities in % compared to the enzyme of SEQ ID NO: 1, pH 7.5” value rises from 63% to 93%.

With B9 the “Specific OTA detoxification activities in % compared to the enzyme of SEQ ID NO: 1, pH 7.5” value was 38%.

assay: Thermostability assay: residual OTA detoxification activity after 10 min incubation at 45-99° C. (T50); format: physicochemical; conditions: 0.1 mg/mL protein in 20 mM Tris-HCl pH 7.5, residual OTA detoxification activity relative to 4° C. reference aliquot
Experimental: Stability was determined in terms of thermostability. Notwithstanding, a person having skill in the art is aware that stability towards high temperature (e.g. more than 30° C.) often correlates with stability towards other non-standard conditions such as stability towards acidic or basic pH (e.g. below pH 6.5 or above pH 7.5, respectively), towards elevated salt concentrations, organic solvents or drying.
To determine the kinetic stability of the produced enzymes, thermostability assays were performed. To this end, purified protein samples were diluted to a protein concentration of 0.1 mg/mL in 20 mM Tris-HCl buffer pH 7.5 and aliquots were incubated in a thermocycler for 10 min at either 45, 55, 65, 75, 80, 85, 90, 95 or 99° C. After this incubation, the aliquots were stored at 4° C. until further analysis. A reference aliquot was stored at 4° C. throughout the incubation. Subsequently, all aliquots were assayed for residual OTA detoxification activity using the assay described in Example 3. Residual enzyme activities were calculated relative to the reference aliquot. The temperature range in which 50% of the initial activity was lost after the incubation (T50), in relation to the reference aliquot was determined.

In the case of B10, the “T50 (temperature at which 50% of the initial activity was maintained)” value is reported as >95 °C.
For B11, the “T50 (temperature at which 50% of the initial activity was maintained)” value was >95 °C.
For B12, the “T50 (temperature at which 50% of the initial activity was maintained)” value was >95 °C.
In the case of B13, the “T50 (temperature at which 50% of the initial activity was maintained)” value is reported as >95 °C.
For B14, the “T50 (temperature at which 50% of the initial activity was maintained)” value was >95 °C.
In the case of B15, the “T50 (temperature at which 50% of the initial activity was maintained)” value is reported as >95 °C.

assay: Enzymatic activity comparison: activity remaining after 65° C. for 10 min at pH 6.0, relative to SEQ ID NO: 1; format: physicochemical; conditions: not given
Experimental: To compare the temperature behavior and thermostability of selected enzymes to one another, enzyme was incubated at 65° C. for 10 min at pH 6.0. The enzymatic activity remaining after incubation was compared to the remaining activity of the enzyme of SEQ ID NO: 1 after incubation, the latter being set to 100%, see Table 16.

First: B1
Second: B2
The “Enzymatic activity remaining after incubation, compared to SEQ ID NO: 1 (set to 100%)” value of the first is lower: 30% for the first, 35% for the second.

B3 and B4 are the same in “Enzymatic activity remaining after incubation, compared to SEQ ID NO: 1 (set to 100%)” value: 34% for the first, 34% for the second.

Going from B5 to B6, the “Enzymatic activity remaining after incubation, compared to SEQ ID NO: 1 (set to 100%)” value falls from 38% to 9%.

Compared with B7, B8 is lower in “Enzymatic activity remaining after incubation, compared to SEQ ID NO: 1 (set to 100%)” value: 73% for the first, 30% for the second.

With B9 the “Enzymatic activity remaining after incubation, compared to SEQ ID NO: 1 (set to 100%)” value was 32%.
